These results are taken from patent US10444224B2, “Method for RNA detection and quantification” (Cornell University, priority 2011, dated 2019).

Where “and” joins values, the source holds several entries; their conditions need not be identical. Identical values can stand only once. Entries after “also recorded” stand apart in the source; their conditions may differ.

The conditions of data set [1]: Bell et al. 2000; cited from earlier work.
Data set [2] can be described thus: Photobleaching curves on glass slides under continuous illumination. The data set is classed as physicochemical. The note with it: immobilized on glass slides, 130 W mercury lamp, 45 min. The method, then:
Photobleaching experiments were performed on fluorescein, EGFP and 24-2-DFHBI complexes immobilized on chemically functionalized glass slides (MicroSurfaces). To immobilized fluorescein, fluorescein cadaverine (Sigma-Aldrich) was reacted in 40 mM HEPES pH 8.0 with NHS-activated glass slides for 2 h at 25° C. Slides were then incubated in 100 mM Tris pH 8.0 to quench any unreacted NHS-activated sites. […] To immobilize 24-2-DFHBI, a 3′ amine modified 21-nt DNA oligo (sequence: 5′-GGTTGTAAGTTTTAGGTTGCC-NH2-3′, SEQ ID NO: 45; Integrated DNA Technologies) was reacted with NHS-activated glass slides. Unreacted NHS-activated sites were blocked as above. 24-2 RNA was then in vitro synthesized with a 5′ overhang complimentary to the immobilized DNA oligo. Purified 24-2 RNA was denatured at 65° C. and incubated with the slide at 25° C. for 20 min to allow hybridization to the immobilized oligonucleotide. […] Images were captured every 10 s with a CoolSnap HQ2 CCD camera through a 10× air objective mounted on a Nikon TE2000 microscope and analyzed with the NIS-Elements software. […] Total fluorescence was then plotted against exposure time and normalized to the maximum intensity of each fluorophore.

A short description of data set [3]: Spinach-based RNA sensor fluorescence in response to SAM. The class given is biochemical.
Description: Dose-response curves for each sensor in response to the target metabolite were determined by measuring the increase in fluorescence as a function of increasing target concentration in the presence of a fixed concentration of RNA sensor (10-50 nM) and a fixed concentration of fluorophore (10 μM). Curves were determined using a nonlinear regression analysis in Prism software and matched by least squares fitting to a standard dose-response model for 1:1 complexation.
The optimal sensors were chosen based on their low fluorescence in the absence of metabolite and the relative increase in fluorescence upon binding to the metabolite.
Data set [4] in a line: Sensor activation rate, SAM sensor. The class given is biochemical. The conditions noted are these: 1 mM SAM, 37° C. On the procedure: A solution of RNA sensor (1 μM) and DFHBI (10 μM) was incubated with continuous stirring at 37° C. in a buffer containing 40 mM HEPES pH 7.4, 125 mM KCl and 1 mM MgCl2. The target metabolite (1 mM) was then rapidly added to the stirring solutions and fluorescence emission was recorded over a 15 min period under continuous illumination at 37° C. using the following instrumental parameters: excitation wavelength, 460 nm; emission wavelength, 500 nm; increment of data point collection, 0.05 s; slit widths, 10 nm. The fluorescence increase was then plotted against exposure time and normalized to the maximum intensity of each fluorophore.

The test system of data set [5] is endogenous SAM levels in living E. coli cells. Put plainly: Live cell imaging of SAM accumulation with the SAM sensor. The data set is classed as cell-based. Further details: average increase in SAM levels upon treatment with methionine: dose or concentration left out as unconfirmed. On the procedure: Expression of the SAM aptamer and intracellular imaging was performed as described above for the ADP sensor: BL21-A Star E. coli cells (Invitrogen) were transformed with 40 ng of plasmid DNA expressing the tRNA-sensor chimeras in pET28c under the control of a T7 promoter. Cells were plated, grown overnight and single colonies were picked for inoculation in LB-Kan. At OD600=0.4, 1 mM of IPTG was added to the culture and shaking was continued at 37° C. for more 2 hours. 100 μL of culture was then removed, spun down to pellet the culture, and resuspended in 2 mL of pH 6.0 M9 minimal media. A 200 μl aliquot of resuspended culture was then plated on PLL-coated 24-well glass-bottom dishes (MatTek) and incubated for 45 minutes at 37° C. Adherent cells were washed twice and then incubated with 200 μM DFHBI in pH 6.0 M9 minimal media for 2 hours at 37° C. Cells were then treated with methionine alone or methionine with inhibitors by adding 2 μl of a 100× stock of the compound to a final concentration of 50 μg/ml for L-methionine, 25 μM for adenosine periodate, and 2.5 μM for MT-DADMe-ImmA. Live fluorescence images were taken with a CoolSnap HQ2 CCD camera through a 60× oil objective mounted on a Nikon TE2000 microscope and analyzed with the NIS-Elements software. The filter set used was a sputter coated filter cube with excitation filter 470/40, dichroic mirror 495 (long pass) and emission filter 525/50 (Chroma Technology).
Cells transformed with SAM sensors were grown overnight in LB-Kan. Cultures were then diluted to OD600=0.1 in 200 mL LB-Kan and grown to OD600=0.4. Cells were then induced for 2 hours with 1 mM IPTG at 37° C. with constant shaking. The entire culture was centrifuged for 5 min at 1,000×g, pellets were resuspended and washed once with M9 media and then resuspended in […] of M9 media containing 200 μM DFHBI and divided into two samples. Methionine (50 μg/ml) or vehicle was then added to either sample and cultures were incubated between 32-37° C. 25 ml aliquots were removed from methionine- and vehicle-treated sample at each time point, centrifuged for 5 min at 1,000×g, and flash frozen in liquid nitrogen. Cells were thawed on ice and lysed by resuspending the pellet in 300 μl of cold 4% perchloric acid. Insoluble material was then pelleted by spinning at 1,000×g for 5 min and the supernatant was transferred to a dialysis spin column with a 10,000 molecular weight cut off (Amicon) and spun at 10,000×g for 10 min at 4° C. A portion of the flow through (50 μl) was then injected on a Zorbax C8 column (Agilent) on an Agilent 1100 HPLC. Samples were loaded and eluted for 15 min with an aqueous buffer containing 3.6% acetonitrile, 40 mM ammonium phosphate, and 5 mM sodium 1-heptanesulfonate which was brought to pH 5.0 with hydrochloric acid. After each sample was eluted, the column was washed with a gradient of 3.6-25% acetonitrile for 30 min prior to the next samples being injected. SAM standards were used to calibrate SAM levels measured using this assay.
Population analysis was carried out using NIS-Elements software. Individual cells in a captured field were manually traced as Region of Interests (ROIs) and tracked through the different time points of image capture. Fluorescence intensity was then calculated by dividing the total fluorescence by the area for each ROI, which gives the mean intensity per unit area. Fold increase in fluorescence over time is calculated as the ratio of mean intensity at a desired time point and at time zero. Values in fold increase in fluorescence over time are plotted as frequency distributions or further used in statistical analyses.

For data set [6], the target named is streptavidin (Streptomyces avidinii, UniProt P22629). Put plainly: Spinach-based protein sensor fluorescence activation. The data set is classed as biochemical. The conditions noted are these: micromolar concentrations of protein, DFHBI included. The text has this:
Using the same strategy from Example 5-7, a streptavidin aptamer (Srisawat and Engelke, “Streptavidin Aptamers: Affinity Tags for the Study of RNAs and Ribonucleoproteins, RNA 7:632-41 (2001), which is hereby incorporated by reference in its entirety) was fused to Spinach, and the transducer domain was optimized. The resulting RNA molecule is illustrated in FIG. 16A. The sensor was separately exposed to solutions containing micromolar concentrations of streptavidin, ovalalbumin, BSA, and lysozyme. […] Thus, the approach is generalizable not just to small molecules, but also proteins.

A short description of data set [7]: Emission and excitation of aptamer-DFAN complex. The conditions noted are these: aptamer with DFAN. The data set is classed as physicochemical.

streptavidin, sequence (P22629 25-183, species assumed): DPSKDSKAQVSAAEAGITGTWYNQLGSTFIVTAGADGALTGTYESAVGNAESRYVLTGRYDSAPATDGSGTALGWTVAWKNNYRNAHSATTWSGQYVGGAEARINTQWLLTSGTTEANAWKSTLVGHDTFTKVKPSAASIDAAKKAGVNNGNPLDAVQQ

One may read the pKa as the negative logarithm of the acid dissociation constant. Regarding `CC1=NC(=Cc2ccc(O)cc2)C(=O)N1C` [HBI, 4-(4-hydroxybenzylidene)-1,2-dimethyl-imidazol-5-one], in data set [1], the pKa is on record as 8.1.

B1: Spinach: first generation derivative of 24-2, DFHBI-binding RNA aptamer (nucleic acid)
chain 1: GACGCGACUGAAUGAAAUGGUGAAGGACGGGUCCAGGUGUGGCUGCUUCGGCAGUGCAGCUUGUUGAGUAGAGUGUGAGCUCCGUAACUAGUCGCGUC
chain 2: GACGCAACUGAAUGAAAUGGUGAAGGACGGGUCCAGGUGUGGCUGCUUCGGCAGUGCAGCUUGUUGAGUAGAGUGUGAGCUCCGUAACUAGUCGCGUC
modifications: listed as RNA, chemistry not given here
As to B1, the “photobleaching during continuous illumination” value in data set [2] is listed as “remarkable resistance to photobleaching”.

B2: SAM sensor: Spinach-based turn-on RNA sensor for SAM, transducer stem 1 (nucleic acid)
chain: GACGCGACUGAAUGAAAUGGUGAAGGACGGGUCCACGAAAGGAUGGCGGAAACGCCAGAUGCCUUGUAACCGAAAGGGUUGUUGAGUAGAGUGUGAGCUCCGUAACUAGUCGCGUC
modifications: chemistry not given here
What is called EC50 is the concentration that produces a half-maximal response. Take B2: the “increase in fluorescence in the presence of SAM” value in data set [3] (10 μM DFHBI, 1 mM SAM, versus no SAM) is 25 fold and 24 fold. The “molecular discrimination: fluorescence with methionine or adenosine” value in data set [3] (1 mM) is listed as “negligibly fluorescent; also recorded: negligible signal above background”. The “molecular discrimination: fluorescence with SAH” value in data set [3] (1 mM SAH) is listed as “only minimal fluorescence; also recorded: negligible signal”. The 50% effective concentration (EC50) in data set [3] (dose-response, 10 μM fluorophore, read-out: half-maximal fluorescence (EC50), SAM) stood at 120 µM. In data set [4] (1 μM RNA sensor, 10 μM DFHBI), the “time to maximal fluorescence after SAM addition” value is given as at most 10 min. Moreover, in data set [4], the “time to increase in fluorescence after SAM addition” value is listed as “less than 10 s”. In data set [5] (50 μg/ml methionine, 3 hr), the “average increase in sensor fluorescence in methionine-treated cells” value is given as “over 6 fold”. The “average increase in SAM levels upon treatment with methionine” value in data set [5] (methionine, 180 min (FIG. 9D)) is listed as “six-fold”.

B3: Spinach-streptavidin sensor: Spinach-based streptavidin sensor RNA molecule (nucleic acid)
chain: GACGCGACUGAAUGAAAUGGUGAAGGACGGGUCCACGACCGACCAGAAUCAUGCAAGUGCGUAAGAUAGUCGCGGGCCGGGGUUGUUGAGUAGAGUGUGAGCUCCGUAACUAGUCGCGUC
modifications: listed as RNA, chemistry not given here
notes: Spinach-based streptavidin sensor RNA molecule
With B3, in data set [6], the “fluorescence activation by BSA, ovalbumin or lysozyme” value was “fail to increase fluorescence above background levels” and the “fluorescence activation by streptavidin” value is recorded as “specific fluorescence activation occurs only in solutions that contained streptavidin”.

B4: SEQ ID NO: 59: RNA aptamer listed for fluorophore DFAN (nucleic acid)
chain: GGGAGACGCAACUGAAUGAAAUACUUGGGAUGGUAAUGGCCUGGAGCUGCUUCGGCAGACCCGUGCAAGGACGUGGGAGAGGGGUCCGUAACUAGUCGCGUCAC
modifications: listed as RNA, chemistry not given here
Regarding B4, in data set [7], the Em entry is given as “Em = 550 nm” and the Ex result was “Ex = 480 nm”.
